Like-named read-outs stand apart in the source and are kept apart here.
B1: bacteriophage φ6 protein P1 (capsid shell), wild type (natural protein, UniProt P11126 1-769, looked up)
chain: MFNLKVKDLNGSARGLTQAFAIGELKNQLSVGALQLPLQFTRTFSASMTSELLWEVGKGNIDPVMYARLFFQYAQAGGALSVDELVNQFTEYHQSTACNPEIWRKLTAYITGSSNRAIKADAVGKVPPTAILEQLRTLAPSEHELFHHITTDFVCHVLSPLGFILPDAAYVYRVGRTATYPNFYALVDCVRASDLRRMLTALSSVDSKMLQATFKAKGALAPALISQHLANAATTAFERSRGNFDANAVVSSVLTILGRLWSPSTPKELDPSARLRNTNGIDQLRSNLALFIAYQDMVKQRGRAEVIFSDEELSSTIIPWFIEAMSEVSPFKLRPINETTSYIGQTSAIDHMGQPSHVVVYEDWQFAKEITAFTPVKLANNSNQRFLDVEPGISDRMSATLAPIGNTFAVSAFVKNRTAVYEAVSQRGTVNSNGAEMTLGFPSVVERDYALDRDPMVAIAALRTGIVDESLEARASNDLKRSMFNYYAAVMHYAVAHNPEVVVSEHQGVAAEQGSLYLVWNVRTELRIPVGYNAIEGGSIRTPEPLEAIAYNKPIQPSEVLQAKVLDLANHTTSIHIWPWHEASTEFAYEDAYSVTIRNKRYTAEVKEFELLGLGQRRERVRILKPTVAHAIIQMWYSWFVEDDRTLAAARRTSRDDAEKLAIDGRRMQNAVTLLRKIEMIGTTGIGASAVHLAQSRIVDQMAGRGLIDDSSDLHVGINRHRIRIWAGLAVLQMMGLLSRSEAEALTKVLGDSNALGMVVATTDIDPSL
B2: bacteriophage φ6 protein P1 with the E390A substitution (natural protein, UniProt P11126 1-769, looked up)
chain: MFNLKVKDLNGSARGLTQAFAIGELKNQLSVGALQLPLQFTRTFSASMTSELLWEVGKGNIDPVMYARLFFQYAQAGGALSVDELVNQFTEYHQSTACNPEIWRKLTAYITGSSNRAIKADAVGKVPPTAILEQLRTLAPSEHELFHHITTDFVCHVLSPLGFILPDAAYVYRVGRTATYPNFYALVDCVRASDLRRMLTALSSVDSKMLQATFKAKGALAPALISQHLANAATTAFERSRGNFDANAVVSSVLTILGRLWSPSTPKELDPSARLRNTNGIDQLRSNLALFIAYQDMVKQRGRAEVIFSDEELSSTIIPWFIEAMSEVSPFKLRPINETTSYIGQTSAIDHMGQPSHVVVYEDWQFAKEITAFTPVKLANNSNQRFLDVAPGISDRMSATLAPIGNTFAVSAFVKNRTAVYEAVSQRGTVNSNGAEMTLGFPSVVERDYALDRDPMVAIAALRTGIVDESLEARASNDLKRSMFNYYAAVMHYAVAHNPEVVVSEHQGVAAEQGSLYLVWNVRTELRIPVGYNAIEGGSIRTPEPLEAIAYNKPIQPSEVLQAKVLDLANHTTSIHIWPWHEASTEFAYEDAYSVTIRNKRYTAEVKEFELLGLGQRRERVRILKPTVAHAIIQMWYSWFVEDDRTLAAARRTSRDDAEKLAIDGRRMQNAVTLLRKIEMIGTTGIGASAVHLAQSRIVDQMAGRGLIDDSSDLHVGINRHRIRIWAGLAVLQMMGLLSRSEAEALTKVLGDSNALGMVVATTDIDPSL

Assays:
Experiment in all cases: cryo-EM structure
[1] = target: B2
cryo-EM structure [2] = target: the molecule itself
cryo-EM structure [3] = target: the molecule itself; remark: listed apart in the source
[4] = target: B1

| Binder | binding result [1] | binding result (cryo-EM structure [2]) | binding result (cryo-EM structure [3]) | binding result [4] |
| --- | --- | --- | --- | --- |
| bacteriophage φ6 protein P2 (RNA-dependent RNA polymerase) (enzyme, UniProt P11124 1-665, looked up) MPRRAPAFPLSDIKAQMLFANNIKAQQASKRSFKEGAIETYEGLLSVDPRFLSFKNELSRYLTDHFPANVDEYGRVYGNGVRTNFFGMRHMNGFPMIPATWPLASNLKKRADADLADGPVSERDNLLFRAAVRLMFSDLEPVPLKIRKGSSTCIPYFSNDMGTKIEIAERALEKAEEAGNLMLQGKFDDAYQLHQMGGAYYVVYRAQSTDAITLDPKTGKFVSKDRMVADFEYAVTGGEQGSLFAASKDASRLKEQYGIDVPDGFFCERRRTAMGGPFALNAPIMAVAQPVRNKIYSKYAYTFHHTTRLNKEEKVKEWSLCVATDVSDHDTFWPGWLRDLICDELLNMGYAPWWVKLFETSLKLPVYVGAPAPEQGHTLLGDPSNPDLEVGLSSGQGATDLMGTLLMSITYLVMQLDHTAPHLNSRIKDMPSACRFLDSYWQGHEEIRQISKSDDAILGWTKGRALVGGHRLFEMLKEGKVNPSPYMKISYEHGGAFLGDILLYDSRREPGSAIFVGNINSMLNNQFSPEYGVQSGVRDRSKRKRPFPGLAWASMKDTYGACPIYSDVLEAIERCWWNAFGESYRAYREDMLKRDTLELSRYVASMARQAGLAELTPIDLEVLADPNKLQYKWTEADVSANIHEVLMHGVSVEKTERFLRSVMPR | binds | – | – | – |
| B1 | – | binds | – | – |
| B2 | – | – | binds | – |
| bacteriophage φ6 protein P4 (packaging motor, packaging NTPase) (enzyme, UniProt P11125 1-332, looked up) MPIVVTQAHIDRVGIAADLLDASPVSLQVLGRPTAINTVVIKTYIAAVMELASKQGGSLAGVDIRPSVLLKDTAIFTKPKAKSADVESDVDVLDTGIYSVPGLARKPVTHRWPSEGIYSGVTALMGATGSGKSITLNEKLRPDVLIRWGEVAEAYDELDTAVHISTLDEMLIVCIGLGALGFNVAVDSVRPLLFRLKGAASAGGIVAVFYSLLTDISNLFTQYDCSVVMVVNPMVDAEKIEYVFGQVMASTVGAILCADGNVSRTMFRTNKGRIFNGAAPLAADTHMPSMDRPTSMKALDHTSIASVAPLERGSVDTDDRNSAPRRGANFSL | binds | binds | – | binds |
